Test results: patent US8129340B2, “Inhibitors of protein phosphatase 1, GADD34 and protein phosphatase 1/GADD34 complex, preparation and uses thereof” (Institut Gustave Roussy, priority 2006, dated 2012)

What was measured:
[1] = test system: CRT; test: Inhibitory profile of CRT exposure (pre-incubation with inhibitors, immunocytofluorometry); format: cell-based; conditions: pre-incubation for 1 h
Method: FIG. 3S: Inhibitory profile of CRT exposure. Cells were treated with mitoxantrone or inhibitors of PP1/GADD34, after pre-incubation for 1 h with the indicated inhibitors of protein synthesis (cycloheximide), RNA synthesis (actinomycin D), microtubuli (nocodazol), or the actin cytoskeleton (latrunculin A). Then, CRT expression was determined by immunocytofluorometry. Results are means of triplicates±SD for one representative experiment out of three.

[2] = test system: cell surface CRT; test: CRT exposure on enucleated CT26 cells (cytoplasts); format: cell-based, murine
Method: FIG. 5A: CRT exposure after anthracyclin treatment in the absence of a nucleus. Intact cells or enucleated cells (cytoplasts) were treated for 2 hours with mitoxantrone, followed by immunofluorescence detection of CRT exposure. Inserts show the effective removal of Hoechst 33342-stainable nuclei from the cytoplasts.
Trypsinized CT26 cells were enucleated as described in the publication of Andreau, K. et al. Contagious apoptosis facilitated by the HIV-1 envelope. Fusion-induced cell-to-cell transmission of a lethal signal. J. Cell Sci. 117, 5643-53 (2004). Briefly, cells were treated in 2 ml of complete RPMI medium containing cytochalasin B (10 μg/ml; Sigma) and DNase I (80 U/ml; Sigma). Cell suspension was adjusted to a final concentration of 5×10^6/ml and incubated at 37° C. for 45 minutes before being layered onto a previously prepared discontinuous Ficoll (Pharmacia) density gradient (3 ml of 100%, in 1 ml of 90% and 3 ml of 55% Ficoll Paque layer containing 5 μg/ml cytochalasin B and 40 U/ml DNase I; gradients were prepared in ultracentrifuge tubes and pre-equilibrated at 37° C. in a CO2 incubator overnight). […] Then the cell surface CRT was detected (see materials and methods) and the viability was determined by with propidium iodine staining (2 μg/ml, Sigma) for 5 min followed by cytofluorometric analysis. […] Phagocytosis was assessed by FACS analysis of double positive cells.

[3] = test system: CT26 tumour cells; test: Anti-tumour vaccination: dying treated CT26 cells injected in one flank, later challenge with live tumour cells; format: in vivo, BALB/c mice; conditions: dying CT26 cells treated with agent injected into one flank, live tumour cells in opposite flank 8 days later
[4] = test system: CT26 cells; test: Phagocytosis of CT26 tumour cells by dendritic cells (FACS, double positive cells); format: cell-based, BALB/c mice
Method: FIG. 3A, FIG. 3B: Correlation between tumour cell phagocytosis and CRT exposure. Tumour cells labelled with Cell Tracker Green were cultured with CD11c-expressing DC and the percentage of DC taking up tumour cells was determined (A) and correlated with the CRT surface exposure (B), measured as in FIG. 2E.
Mitoxantrone-treated or control cells were incubated with a blocking chicken anti-CRT antibody, followed by detection of phagocytosis by CD.
Cells were transfected with the indicated siRNAs and optionally treated with rCRT, followed by immunoblot (FIG. 3D) detection of surface CRT (FIG. 3E) and phagocytosis by DC (FIG. 3F). Results are triplicates (X±SD) and representative of three independent experiments. * denotes statistically significant differences using the Student t′ test at p<0.001.
BM cells were flushed from the tibias and femurs of BALB/c mice with culture medium composed of RPMI 1640 medium (Invitrogen Life Technologies) supplemented with 10% heat-inactivated FBS (Invitrogen), sodium pyruvate, 50 μM 2-ME (Sigma), 10 mM HEPES (pH 7.4), and penicillin/streptomycin (Invitrogen). After one centrifugation, BM cells were resuspended in Tris-ammonium chloride for 2 min to lyse RBC. After one more centrifugation, BM cells (1×10^6 cells/ml) were cultured in medium supplemented with 100 ng/ml recombinant mouse FLT3 ligand (R&D systems) in 6-well plates (Costar Corning). After 7 days, the non-adherent and loosely adherent cells were harvested with Versene, washed and transferred in 12-well plates (1.5×10^6 cells/plate) for cocultures with tumour cells.
In 12-well plates, […] adherent CT26 cells were labelled with Celltracker Green (Calbiochem) and then incubated with drugs. In some experiments viable CT26 were coated with 2 μg/10^6 cells of chicken anti-CRT antibody (ABR affinity bioreagents) or an isotype control for 30 min prior to washing and feeding to dendritic cells Cs. Alternatively CT26 cells were coated with 2 μg/10^6 cells of rCRT on ice for 30 min and washed twice prior to addition to dendritic cells. Cells were then harvested, washed three times with medium supplemented with FBS and cocultured with immature DC for 2 hours at a ratio of 1:1 and 1:5. At the end of the incubation, cells were harvested with versene, pooled with non-adherent cells present in the supernatant, washed and stained with CD11c-FITC antibody. Phagocytosis was assessed by FACS analysis of double positive cells. Phagocytic indexes refer to the ratio between values obtained at 4° C. and values obtained at 37° C. of co-incubation between DC and tumour cells.

[5] = test system: CT26 tumours; test: Intratumoural treatment of established CT26 tumours in immunodeficient mice; format: in vivo, athymic nu/nu Balb/c mice; conditions: for therapeutic effect of single agent on established tumours, nu/nu mice: single intratumoural injection
[6] = test system: CT26 tumours; test: Intratumoural treatment of established CT26 tumours in immunocompetent mice; format: in vivo, BALB/c mice (wild type); conditions: for therapeutic effect of single agent on established tumours, immunocompetent mice: single intratumoural injection, 14-day-old CT26 tumours
[7] = test system: CRT; test: CRT exposure on tumour cell lines of murine origin (MCA205, B16F10, J558); format: cell-based
[8] = test system: CRT; test: CRT exposure on tumour cell lines of human origin (HeLa, A549, HCT116); format: cell-based
[9] = test system: DC; test: DC maturation ex vivo; format: cell-based; conditions: alone, over a large range of concentrations
[10] = test system: CT26 tumour cells; test: Local immune response: tumour cells injected into foot pad, IFN-γ secretion by draining popliteal lymph node cells (ELISA); format: in vivo, Balb/c mice
Method: FIG. 4B: Priming of T cell responses depending on CRT. CT26 tumour cells were left untransfected or transfected with the indicated siRNAs, then treated with medium alone, mitomycin C or mitoxantrone and injected into the right food pad of Balb/c mice. Five days later, mononuclear cells from the draining popliteal lymph nodes were challenged with freeze-thawed CT26 cells, and IFN-γ secretion was assessed at 72 hrs.
FIG. 4C: Exogenous supply of CRT enhances the immunogenicity of CRT-negative dying cells. CT26 cells lacking CRT expression after depletion of CRT with a siRNA and mitoxantrone treatment or after mitomycin treatment were coated with rCRT (inserts) and then injected in the food pad, followed by assessment of the IFN-γ secretion by cells from the draining lymph nodes as in FIG. 4B.
(§1) Tumours were evaluated weekly, using a caliper.

[11] = test system: CT26 colon cancer cells; test: In vivo anti-cancer vaccination: treated tumour cells in one flank and live tumour cells in opposite flank simultaneously; parameters: species or system BALB/c mice
Method: FIG. 4A: In vivo anti-cancer vaccination depends on CRT. CT26 colon cancer cells were transfected with the indicated siRNAs, then treated with rCRT and/or mitoxantrone (as in FIG. 3D) and the anti-tumour response was measured by simultaneously challenging BALB/c mice with mitoxantrone treated tumour cells in one flank and untreated live tumour cells in the opposite flank.
FIG. 4D: CRT-mediated amelioration of the immune response against etoposide-treated tumour cells. CT26 cells were treated for 24 h with etoposide (or PBS) and rCRT was optionally absorbed to the cell surface (inserts), followed by simultaneous injection of the etoposide ±rCRT-treated tumour cells and live tumour cells in opposite flanks and monitoring of tumour growth.
as §1

[12] = intratumoural injection with etoposide or mitomycin C

## C/C1=C/C(=O)O[C@@H]2C[C@@H](CC[C@H](C)/C=C\C=C\CC1)O[C@@](O)([C@@H]1CSC(=O)N1)C2 [latrunculin A]
[1]
  effect on CRT exposure induced by anthracyclins and PP1/GADD34 inhibitors: abolished

## O=C1c2c(O)ccc(O)c2C(=O)c2c(NCCNCCO)ccc(NCCNCCO)c21 [mitoxantrone]
[2]
  time to CRT exposure in cytoplasts: ≤ 1 h
[3]
  immunogenicity of cell death (protection against tumour growth, anti-tumour vaccination): elicited immunogenic cell death
[4]; within a few hours after treatment
  phagocytosis of drug-treated tumour cells by DC: acquired the property to be phagocytosed by DC quickly
[5]
  therapeutic effect of single agent on established tumours, nu/nu mice: no cure
[6]
  therapeutic effect of single agent on established tumours, immunocompetent mice: able to cause their permanent regression in some but not all cases
[7]
  CRT exposure on murine tumour cell lines: induced CRT exposure
[8]
  CRT exposure on human tumour cell lines: induced CRT exposure

B1: rCRT: recombinant CRT protein, which binds to the surface of the cells (protein, UniProt P27797 18-417, looked up)
Calreticulin: EPAVYFKEQFLDGDGWTSRWIESKHKSDFGKFVLSSGKFYGDEEKDKGLQTSQDARFYALSASFEPFSNKGQTLVVQFTVKHEQNIDCGGGYVKLFPNSLDQTDMHGDSEYNIMFGPDICGPGTKKVHVIFNYKGKNVLINKDIRCKDDEFTHLYTLIVRPDNTYEVKIDNSQVESGSLEDDWDFLPPKKIKDPDASKPEDWDERAKIDDPTDSKPEDWDKPEHIPDPDAKKPEDWDEEMDGEWEPPVIQNPEYKGEWKPRQIDNPDYKGTWIHPEIDNPEYSPDPSIYAYDNFGVLGLDLWQVKSGTIFDNFLITNDEAYAEEFGNETWGVTKAAEKQMKDKQDEEQRLKEEEEDKKRKEEEEAEDKEDDEDKDEDEEDEEDKEEDEEEDVPGQAKDEL
[9]
  DC maturation: could not promote DC maturation ex vivo
[10]; cells injected into the foot pad
  immunogenicity of mitoxantrone-treated CT26 cells (interferon-γ production by T cells from popliteal lymph node): this defect was restored
[10]; rCRT absorbed to plasma membrane of mitomycin-treated cells
  immunogenicity of mitomycin-treated cells coated with rCRT (IFN-γ): greatly enhanced the immunogenicity of cells that usually fail to induce an immune response
[11]; cells injected into the flank of Balb/c mice
  immunogenicity of mitoxantrone-treated CT26 cells (efficacy of anti-tumour vaccination): this defect was restored
[11]; etoposide-treated cells coated with rCRT
  anti-tumour immune response to etoposide-treated cells coated with rCRT: elicited a vigorous anti-tumour immune response in vivo
[11]; rCRT absorbed to cell surface without prior treatment with cell death inducers
  anti-cancer immune response to rCRT-coated live cells: failed to elicit an anti-cancer immune response
[4]; rCRT added to cell surface of CRT-siRNA transfected cells
  restoration of phagocytosis by DC in CRT-siRNA cells: could reverse the defect induced by the CRT-specific siRNA
[5]; [12]
  therapeutic effect combined with a cell death inducer (etoposide or mitomycin C), immunodeficient mice: not in immunodeficient
[5]
  therapeutic effect of single agent on established tumours, nu/nu mice: no major therapeutic effect
[6]; contralateral subcutaneous rCRT plus intratumoural etoposide
  effect of rCRT injected into a distant site: did not ameliorate the antitumoural effects of intratumorally injected etoposide
[6]; [12]
  therapeutic effect combined with a cell death inducer (etoposide or mitomycin C), immunocompetent mice: able to cause tumour regression
[6]
  therapeutic effect of single agent on established tumours, immunocompetent mice: no major therapeutic effect
